Experimental data taken from patent US20020031818A1, “Modification of Mdm2 activity” (priority 2000, published 2002).

Assays:
[1] = target: T1, Ubc9 binding to Mdm2 (Homo sapiens, UniProt Q00987); test: In vitro binding of Ubc9 to GST-Mdm2; details: in vitro translated p19ARF and Ubc9, GST-Mdm2 1 μg
T1 construct: made in house; host or cells: GST-Mdm2: bacteria; Ubc9: in vitro translation
Procedure: FIGS. 17A and 17B. A. p19^ARF decreases Ubc9 binding to Mdm2. Bacterially expressed and purified GST-Mdm2 (1 μg) was incubated with ^35S-labeled in vitro translated p19^ARF and Ubc9 at the indicated ratios. After 30 min of incubation GSH beads bound-GST-Mdm2 were washed and separated on a 12% SDS-PAGE. Gel was dried and subjected to autoradiograph, depicting relative amounts of Ubc9 and p19^ARF bound to Mdm2. B. Bacterially expressed and purified GST-Mdm2 (1 μg) was phosphorylated by purified form of active p38 kinase as indicated. Phosphorylated or un-phosphorylated Mdm2 was incubated for 30 min with in vitro translated UbcH5b and Ubc9 (25 μl). Beads were washed and separated on a 12% SDS-PAGE. Gel was dried and exposed to X-ray film. Position of Ubc9 and UbcH5b is shown.
A prerequisite for Mdm2 sumoylation is the association of Ubc9, the SUMO conjugating enzyme, with Mdm2, which enables subsequent conjugation of SUMO-1 to Mdm2. Inhibition of Ubc9's association with Mdm2 attenuates Mdm2 sumoylation. Given the effect of p19^ARF on Mdm2 sumoylation, we proceeded to determine whether p19^ARF may alter Ubc9 binding to Mdm2. To this end we performed an in vitro binding assay, using in vitro translated p19^ARF and Ubc-9, as indicated. […] We next assessed possible changes in Ubc9 binding to Mdm2 upon its phosphorylation by p38.

[2] = target: T2, GST-Mdm2 (Homo sapiens, UniProt Q00987); test: In vitro conjugation of SUMO-1 to GST-Mdm2 (in vitro sumoylation); format: biochemical
T2 construct: made in house
Procedure: A. Time dependent Mdm2 sumoylation in vitro. Bacterially expressed and purified GST-Mdm2 was subjected to in vitro sumoylation reaction in the presence of E1, Ubc9, and ^35S-Sumos. Reaction was terminated after 10,30,50 or 60 minutes, Proteins were separated on 8% gel, Commassie stained, dryed and exposed overnight (upper panel). Lower panel depicts Commassie blue staining of Mdm2 forms. […] (Upper part) The specific Ubc-9-binding site peptide or a nonspecific peptide was added to the reaction for the indicated time periods. […] The lower panel depicts a Coomassie staining visualizing relative amounts of sumoylated and non-sumoylated forms of purified GST-Mdm2. C. The Mdm2 sumoylation assay was carried out in the presence of Ubc-9-binding site peptide (mu9bs) or a nonspecific peptide (mu9bs) which were added to the reaction at the indicated concentrations. […] Mdm2/p53 double null cells were transfected with Flag-tagged Mdm2, HA-tagged Sumo-1 and increasing amounts of the specific or nonspecific Ubc-9-peptides, respectively. Cells were harvested 36 h later and 500 μg of protein was immunoprecipitated using Mdm2 antibodies (2A10). Immunoprecipitated Mdm2 levels were detected using 2A10 antibodies (top). The same membrane was stripped and reprobed using monoclonal antibodies against Sumo-1 (Zymed, middle) to visualize the level of Sumo-1 conjugation to Mdm2 after Ubc-9-peptide expression.
A. Bacterially expressed and purified Mdm2 (1 μg) was incubated with ^32P-labeled Sumo-1, purified Aos1/Uba2 and Ubc9 (0.5 μg) for 60 min at 37° C. in conjugation buffer. For indicated time-periods in vitro translated wt or mutant p19^ARF (0.5 mg) was added to the sumoylation reactions. Upper panel depicts the amount of Sumoylated Mdm2, lower panel reveal the level of Mdm2 and Sumo-Mdm2 in Coomassie blue gel. B. Bacterially expressed and purified Mdm2 (1 μg) was incubated with in vitro-translated ^35S-Sumo, purified Aos1/Uba2 and Ubc9 (0.5 μg) for 60 min at 37° C. in conjugation buffer in the presence of the increasing amounts of bacculovirus-expressed p19^ARF (0, 0.1, 0.5, 1 μg; lanes 1-4 respectively). Bead-bound complexes were washed before being denatured in 3× Sample Buffer. Proteins were separated on 8% SDS-PAGE. Gel was stained with Coomassie blue to verify equal Mdm2 input (lower panel), dried and exposed to X-ray film, which depicts SUMO-1 conjugation to Mdm2 in the presence of the indicated p19 forms (upper panel). […] Double-null cells were transfected with Flag-tagged Mdm2 (1.5 μg), HA-tagged SUMO (1.5 μg) and p19 wt (1.5 μg). Cells were treated with MG132 (40 mM) for 5 h prior to protein preparation. […] (Left) Immunoprecipitated Mdm2 was detected using monoclonal Mdm2 antibodies (2A10, left). […]

[3] = system: Mdm2; test: In vivo ubiquitination of Mdm2 in EJ cells (HA-Ub, Mdm2 immunoprecipitation); format: cell-based, mouse; details: forced expression in EJ p19 null cells
Excerpt: FIG. 14A-14E. A. In vitro ubiquitination of Mdm2 is inhibited by p19^ARF. GST-Mdm2 was subjected to an in vitro ubiquitination reaction using purified forms of E1, E2 and Ub-HA in the presence of ATP. Addition of bacculovirus-purified p19^ARF at the indicated concentrations blocked Mdm2 ubiquitination. Glutathione bead-coupled GST-Mdm2 in its ubiquitinated or non-ubiquitinated forms was washed and analyzed on immunoblots using antibodies to HA (upper panel). Middle panel depicts the level of Mdm2 expression and the lower panel, the level of p19^ARF added to the reaction. B. p19^ARF expression increases Mdm2 self-ubiquitination in EJ cells. EJ cells were transfected with the indicated plasmids. Cells were harvested 36 h later and proteins ([…]) were immunoprecipitated using Mdm2 antibodies (2A10). Immunoprecipitated material was washed and proteins loaded onto 10% SDS-PAGE, followed by immunoblot analysis with HA-antibodies to detect covalent HA-ubiquitin conjugation to Mdm2 (upper panel). Middle panel depicts level of immunoprecipitated Mdm2. Lower panel represents western analysis of p19^ARF expression levels. C. In vitro ubiquitination of Mdm2 in the presence of p19^ARF and protein extracts. […] The level of p53 immunoprecipitated was monitored in immunoblots using polyclonal antibodies to p53 (middle). […]

T2 sequence (Q00987 whole entry): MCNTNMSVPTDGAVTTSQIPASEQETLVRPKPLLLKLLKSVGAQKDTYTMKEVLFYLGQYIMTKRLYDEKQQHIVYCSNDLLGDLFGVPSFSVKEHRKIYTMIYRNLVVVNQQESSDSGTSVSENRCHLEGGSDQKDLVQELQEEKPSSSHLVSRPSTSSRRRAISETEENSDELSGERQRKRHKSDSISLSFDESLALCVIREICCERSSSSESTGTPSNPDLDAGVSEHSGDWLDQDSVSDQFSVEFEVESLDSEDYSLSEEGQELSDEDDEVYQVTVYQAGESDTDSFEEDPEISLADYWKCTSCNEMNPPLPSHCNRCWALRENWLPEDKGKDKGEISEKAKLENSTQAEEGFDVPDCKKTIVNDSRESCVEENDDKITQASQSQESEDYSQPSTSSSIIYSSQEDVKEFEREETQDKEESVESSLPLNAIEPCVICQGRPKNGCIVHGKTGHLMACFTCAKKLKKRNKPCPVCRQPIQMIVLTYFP
T1 sequence (Q00987 whole entry): as above

B1: p19^ARF: Mdm2-regulating protein; in vitro translated, bacculovirus-expressed or transfected (protein)
chain: MGRRFLVTVRIQRAGRPLQERVFLVKFVRSRRPRTASCALAFVNMLLRLERILRRGPHRNPGPGDDDGQRSRSSSSAQLRCRFELRGPHYLLPPGARRSAGRLPGHAGGAARVRGSAGCARCLGSPAARLGPRAGTSRHRAIFAFRWVLFVFRWVVFVYRWERRPDRRA
Q: Which “Ubc9 binding to Mdm2 in presence of increasing amounts of p19ARF” value [1] does the source give for B1 here?
A: dose dependent decrease in Ubc9 binding to Mdm2

Q: And the “in vitro sumoylation of Mdm2 with p19ARF purified from insect cells” value ([2]; 0, 0.1, 0.5, 1 μg bacculovirus-expressed p19ARF)?
A: inhibited in a dose-dependent manner

Q: And the “GST-Mdm2 sumoylation in vitro with in vitro-translated p19 forms” value ([2]; in vitro-translated wt or mutant p19ARF)?
A: efficient inhibition of GST-Mdm2 sumoylation in vitro

Q: And the “degree of Mdm2 ubiquitination in vivo” value [3]?
A: noticeable increase in the degree of Mdm2 ubiquitination
